Measured values as given in IntAct's records for PubMed 12374762.

B1: Aryl-hydrocarbon-interacting protein-like 1 (Homo sapiens), Q9NZN9 (parent)
chain: MDAALLLNVEGVKKTILHGGTGELPNFITGSRVIFHFRTMKCDEERTVIDDSRQVGQPMHIIIGNMFKLEVWEILLTSMRVHEVAEFWCDTIHTGVYPILSRSLRQMAQGKDPTEWHVHTCGLANMFAYHTLGYEDLDELQKEPQPLVFVIELLQVDAPSDYQRETWNLSNHEKMKAVPVLHGEGNRLFKLGRYEEASSKYQEAIICLRNLQTKEKPWEVQWLKLEKMINTLILNYCQCLLKKEEYYEVLEHTSDILRHHPGIVKAYYVRARAHAEVWNEAEAKADLQKVLELEPSMQKAVRRELRLLENRMAEKQEEERLRCRNMLSQGATQPPAEPPTEPPAQSSTEPPAEPPTAPSAELSAGPPAEPATEPPPSPGHSLQH

Variants of: B1
Details: with nub1_human NUB1, Q9Y5A7
Chain of nub1_human NUB1, Q9Y5A7 (Q9Y5A7 whole entry): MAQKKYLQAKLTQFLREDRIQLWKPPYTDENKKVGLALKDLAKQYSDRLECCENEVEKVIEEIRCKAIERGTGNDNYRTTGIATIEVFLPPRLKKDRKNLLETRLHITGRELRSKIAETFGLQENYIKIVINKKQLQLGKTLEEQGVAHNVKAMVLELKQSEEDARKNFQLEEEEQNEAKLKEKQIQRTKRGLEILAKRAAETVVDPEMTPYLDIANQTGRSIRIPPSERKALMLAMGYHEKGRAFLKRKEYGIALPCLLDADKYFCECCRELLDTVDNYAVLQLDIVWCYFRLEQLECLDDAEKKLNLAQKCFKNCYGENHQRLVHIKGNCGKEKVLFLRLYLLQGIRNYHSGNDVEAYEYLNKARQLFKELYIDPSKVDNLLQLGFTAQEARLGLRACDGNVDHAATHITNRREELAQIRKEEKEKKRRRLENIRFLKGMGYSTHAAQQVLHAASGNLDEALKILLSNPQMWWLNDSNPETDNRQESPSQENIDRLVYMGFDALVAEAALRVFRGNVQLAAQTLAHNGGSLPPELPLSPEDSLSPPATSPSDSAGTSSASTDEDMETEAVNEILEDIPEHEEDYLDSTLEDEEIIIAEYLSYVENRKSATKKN

Effect of a mutation on the interaction, decreasing interaction:
MDAALLLNVEGVKKTILHGGTGELPNFITGSRVIFHFRTMKCDEERTVIDDSWQVGQPMHIIIGNMFKLEVWEILLTSMRVHEVAEFWCDTIHTGVYPILSRSLRQMAQGKDPTEWHVHTCGLANMFAYHTLGYEDLDELQKEPQPLVFVIELLQVDAPSDYQRETWNLSNHEKMKAVPVLHGEGNRLFKLGRYEEASSKYQEAIICLRNLQTKEKPWEVQWLKLEKMINTLILNYCQCLLKKEEYYEVLEHTSDILRHHPGIVKAYYVRARAHAEVWNEAEAKADLQKVLELEPSMQKAVRRELRLLENRMAEKQEEERLRCRNMLSQGATQPPAEPPTEPPAQSSTEPPAEPPTAPSAELSAGPPAEPATEPPPSPGHSLQH [R53W]
MDAALLLNVEGVKKTILHGGTGELPNFITGSRVIFHFRTMKCDEERTVIDDSRQVGQPMHIIIGNMFKLEVWEILLTSTRVHEVAEFWCDTIHTGVYPILSRSLRQMAQGKDPTEWHVHTCGLANMFAYHTLGYEDLDELQKEPQPLVFVIELLQVDAPSDYQRETWNLSNHEKMKAVPVLHGEGNRLFKLGRYEEASSKYQEAIICLRNLQTKEKPWEVQWLKLEKMINTLILNYCQCLLKKEEYYEVLEHTSDILRHHPGIVKAYYVRARAHAEVWNEAEAKADLQKVLELEPSMQKAVRRELRLLENRMAEKQEEERLRCRNMLSQGATQPPAEPPTEPPAQSSTEPPAEPPTAPSAELSAGPPAEPATEPPPSPGHSLQH [M79T]
MDAALLLNVEGVKKTILHGGTGELPNFITGSRVIFHFRTMKCDEERTVIDDSRQVGQPMHIIIGNMFKLEVWEILLTSMRVHEVAEFWCDTIHTGVYPILSRSLRQMAQGKDPTEWHVHTCGLANMFAYHTLGYEDLDELQKEPQPLVFVIELLQVDAPSDYQRETWNLSNHEKMKAVPVLHGEGNRLFKLGRYEEASSKYQEAIICLRNLQTKEKPWEVQWLKLEKMINTLILNYCQCLLKKEEYYEVLEHTSDILRHHPGIVKAYYVRARAHAEVWNEAEAKADLQKVLELEPSMQKAVLRELRLLENRMAEKQEEERLRCRNMLSQGATQPPAEPPTEPPAQSSTEPPAEPPTAPSAELSAGPPAEPATEPPPSPGHSLQH [R302L]
MDAALLLNVEGVKKTILHGGTGELPNFITGSRVIFHFRTMKCDEERTVIDDSRQVGQPMHIIIGNMFKLEVWEILLTSMRVHEVAEFWCDTIHTGIYPILSRSLRQMAQGKDPTEWHVHTCGLANMFAYHTLGYEDLDELQKEPQPLVFVIELLQVDAPSDYQRETWNLSNHEKMKAVPVLHGEGNRLFKLGRYEEASSKYQEAIICLRNLQTKEKPWEVQWLKLEKMINTLILNYCQCLLKKEEYYEVLEHTSDILRHHPGIVKAYYVRARAHAEVWNEAEAKADLQKVLELEPSMQKAVRRELRLLENRMAEKQEEERLRCRNMLSQGATQPPAEPPTEPPAQSSTEPPAEPPTAPSAELSAGPPAEPATEPPPSPGHSLQH [V96I]
MDAALLLNVEGVKKTILHGGTGELPNFITGSRVIFHFRTMKCDEERTVIDDSRQVGQPMHIIIGNMFKLEVWEILLTSMRVHEVAEFWCDTIHTGVYPILSRSLRQMAQGKDPTEWHVHTCGLANMFAYHTLGYEDLDELQKEPQPLVFVIELLQVDAPSDYQRETWNLSNHEKMKAVPVLHGEGNRLFKLGRYEEASSKYQEAIICLRNLQTKEKPWEVQWLKLEKMINTLILNYCQCLLKKEEYYEVLEHTSDILRHHPSIVKAYYVRARAHAEVWNEAEAKADLQKVLELEPSMQKAVRRELRLLENRMAEKQEEERLRCRNMLSQGATQPPAEPPTEPPAQSSTEPPAEPPTAPSAELSAGPPAEPATEPPPSPGHSLQH [G262S]
